# Data from the supplement of paper PMC10724198.
# ± gives the standard deviation of the averaged measurements.
# Tested on: Saccharomyces cerevisiae
# Assay: protein stability index of tFT-peptide fusion (C-terminal peptide) (PSI (0-1 scale)); higher = more stable (slower turnover)
# Settings: genetic background: wild type; temperature: 30 C
# Description: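 Multiplexed protein stability (MPS) profiling in S. cerevisiae. Random 12-aa peptides (tFT-X12 library) are fused to the C-terminus of a sfGFP-mCherry tandem fluorescent timer, after mCherry and a GGGS linker. Cells are FACS-sorted into 8 mCherry/sfGFP bins and deep-sequenced. The protein stability index (PSI) is the read-weighted bin average, scaled from 0 (unstable) to 1 (stable). Only peptides with >10 reads are reported; cells were grown at 30 °C in SC-His with glucose.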
# 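Note: PSI is a weighted mean of sequencing reads over stability bins, variants kept only with over 10 reads, mCherry proximal and sfGFP distal, peptide attached via GGGS linker.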
row,Sequence,protein stability index
1,ATMGRKSLRDRF,0.679 ± 0.012
2,ATSCLPLPSCPG,0.726 ± 0.019
3,ATSSNFGVWVHV,0.69 ± 0.048
4,AVACGGASGCGC,0.707 ± 0.071
5,AVCWGGSVGGVG,0.69898 ± 0.00012
6,AVEGVSEVSLSG,0.656 ± 0.019
7,AVGQGAGSWGWE,0.691 ± 0.049
8,AVGRGGVGAEGA,0.65 ± 0.011
9,AVGWGGLKGRVG,0.7 ± 0.037
10,AVKMLGRGLVLV,0.624 ± 0.032
11,AVPLFRSVSRTS,0.667 ± 0.11
12,AVPSLYLLPFSF,0.69 ± 0.037
13,AVRFISRLPPPA,0.686 ± 0.078
14,AVSPISLSDNIG,0.664 ± 0.018
15,AVSRSLTGVRFL,0.697 ± 0.025
16,AVTAFDMGGSRN,0.672 ± 0.12
17,AVVSRVPRLFRL,0.724 ± 0.045
18,AVVYIRVEVPGA,0.498 ± 0.017
19,AVWLEAVSVSLS,0.612 ± 0.012
20,AVWRVSGPFTDA,0.685 ± 0.071
21,AVYSDCARNITW,0.714 ± 0.047
22,AWFIRSLVAYFL,0.545 ± 0.017
23,AWGLDGCQLCFS,0.751 ± 0.11
24,AYLNPFTSALTA,0.616 ± 0.028
25,AYTWVMTGAWLL,0.586 ± 0.015
26,CAAIHFLLPTYP,0.69 ± 0.054

row,Sequence,protein stability index
1,CAAYIQNLPFPF,0.727 ± 0.019
2,CAEGMCCCRGVG,0.56 ± 0.013
3,CAGGLFAVVTPS,0.682 ± 0.043
4,CARAGLGFRWVG,0.621 ± 0.031
5,CARPVLSAGSWQ,0.673 ± 0.065
6,CCFAGFAVWSVD,0.7 ± 0.019
7,CCLLYPAVYTTQ,0.62 ± 0.046
8,CCPLRLPRSRGY,0.705 ± 0.055
9,CCSWPSRLLLEG,0.722 ± 0.026
10,CCVVFMGLGGGR,0.673 ± 0.0085
11,CCYSSLRLMSFL,0.536 ± 0.014
12,CDDIIKGEIRIM,0.722 ± 0.041
13,CDFYGCAPAPRL,0.7945 ± 0.0077
14,CDHLSLCDDLFA,0.753 ± 0.065
15,CDQVSDGSMGTV,0.634 ± 0.04
16,CDTIPNPLYKYD,0.75 ± 0.055
17,CDYAWSSSASLG,0.56 ± 0.017
18,CECANLIAHFCV,0.6253 ± 0.0059
19,CECVGGFGFLGS,0.682 ± 0.031
20,CEITISQEQSAS,0.624 ± 0.022
21,CFGFRVFGFVFF,0.561 ± 0.075
22,CFGGGVGWFPLG,0.698 ± 0.0076
23,CFGSRDSSFGHT,0.763 ± 0.13
24,CFLIFQRSWLFR,0.576 ± 0.066
25,CFNGRVGGGGMR,0.636 ± 0.086
26,CFPALSSRTFPS,0.7521 ± 0.0047

row,Sequence,protein stability index
1,CFPPVGPTSPTI,0.745 ± 0.022
2,CFSFLEYCTSLP,0.704 ± 0.012
3,CGEGVCVTGWSR,0.68 ± 0.028
4,CGFGVSHASRIF,0.78 ± 0.012
5,CGGAKLPEQCQK,0.6813 ± 0.0022
6,CGLCDISFDLVM,0.626 ± 0.027
7,CGLSAGIVLFFC,0.58 ± 0.012
8,CGQEQGCEGAVD,0.658 ± 0.12
9,CGRERIEGGGGD,0.643 ± 0.1
10,CGRPPPLFAFIP,0.701 ± 0.037
11,CGTPWHSITCSA,0.55 ± 0.012
12,CGTYPTFCGLGV,0.68 ± 0.068
13,CGVCRGSCGGYG,0.583 ± 0.016
14,CGVCSAGIFVGG,0.761 ± 0.026
15,CGVFAGRVGVRV,0.6003 ± 0.0017
16,CGVMLFGLGCLW,0.6321 ± 0.00042
17,CGVSRIGLAGDV,0.671 ± 0.039
18,CGWIQYSVSHDL,0.712 ± 0.059
19,CHNVIEKIRNNK,0.657 ± 0.1
20,CHPFGLPFMLEF,0.721 ± 0.026
21,CHSIEGSEPREA,0.694 ± 0.085
22,CIATINKMTRRI,0.67 ± 0.11
23,CIRSRHRRQSKG,0.67 ± 0.088
24,CISPPRHAPPPP,0.637 ± 0.092
25,CKCKLNKKTTKS,0.701 ± 0.05
26,CKEGLGSGRWGR,0.717 ± 0.018

row,Sequence,protein stability index
1,CKKGVEIIEREK,0.632 ± 0.026
2,CLCLTCMLDFYL,0.553 ± 0.0092
3,CLEEVVCRVRGA,0.643 ± 0.0096
4,CLFPVSLPCPTN,0.714 ± 0.018
5,CLGPTVYGRSTF,0.728 ± 0.025
6,CLICLRSRMGDC,0.642 ± 0.024
7,CLIGYFPYRLVL,0.502 ± 0.025
8,CLLCLPPPRSLS,0.69 ± 0.034
9,CLPLFISPFLLG,0.677 ± 0.0068
10,CLPPPARLPAPR,0.683 ± 0.033
11,CLSGLIIMPSVG,0.675 ± 0.035
12,CLSPSSHLPSVT,0.685 ± 0.021
13,CLTGSVLVICGN,0.551 ± 0.06
14,CLVDSSSFSLIF,0.742 ± 0.065
15,CLVGWAVAVLGD,0.458 ± 0.068
16,CLVIDDPFLVPF,0.6988 ± 0.001
17,CLVRIIRREIKG,0.575 ± 0.018
18,CMCFFMGGWWCV,0.608 ± 0.0067
19,CMFPVSHRLLYL,0.615 ± 0.047
20,CMGRCGVCCERS,0.711 ± 0.045
21,CMWDAVGFALRS,0.72 ± 0.011
22,CPGNRQEMLKSR,0.676 ± 0.0083
23,CPLPTAFRSTHV,0.691 ± 0.019
24,CPRLDVSSGFSW,0.694 ± 0.025
25,CPTVLWPRSPRN,0.688 ± 0.027
26,CQPNRKRETRGN,0.732 ± 0.064

row,Sequence,protein stability index
1,CQSARCLPFLLY,0.585 ± 0.026
2,CQVTDYLVLDWG,0.727 ± 0.038
3,CQYKRRLKTTET,0.732 ± 0.0085
4,CRGPRASRRRGR,0.629 ± 0.04
5,CRHPYTSTTRLA,0.68 ± 0.025
6,CRKLSIPLRGQS,0.6627 ± 0.0044
7,CRQCKGTDGDDQ,0.673 ± 0.04
8,CRSGERSHKMLL,0.63 ± 0.011
9,CRSRRIVGPDSR,0.669 ± 0.015
10,CSAALTTLLDFA,0.715 ± 0.018
11,CSAVVPASARTP,0.606 ± 0.019
12,CSDRCHNLLLDA,0.705 ± 0.059
13,CSFFNSFPVFWL,0.7 ± 0.014
14,CSGRDLSLSMAD,0.744 ± 0.13
15,CSHPHPSSNLPS,0.683 ± 0.045
16,CSKERAPGPSSG,0.705 ± 0.075
17,CSLRVSADPLLT,0.7315 ± 0.0071
18,CSNGRKFKKDDA,0.682 ± 0.059
19,CSPLIISDATSR,0.713 ± 0.082
20,CSRGRNSDNNLI,0.631 ± 0.043
21,CSSLPSRPLLPH,0.7209 ± 0.0062
22,CSSSALADLLPW,0.6537 ± 0.0022
23,CSSSLLDSPPAL,0.703 ± 0.048
24,CSTYPLFPTLPP,0.693 ± 0.049
25,CTFSGLLEMAGR,0.7253 ± 0.0024
26,CTGSRPPPDCAV,0.646 ± 0.019

row,Sequence,protein stability index
1,CTHCAGVLLHTL,0.636 ± 0.044
2,CTKKNGYNGKNT,0.652 ± 0.025
3,CVARRPSLIGRN,0.655 ± 0.027
4,CVCLGCGGAFAG,0.696 ± 0.019
5,CVFAPLFYNVYA,0.585 ± 0.019
6,CVGILGAVKSGM,0.71 ± 0.098
7,CVIIDFTLCSVI,0.682 ± 0.14
8,CVLVVGGPAGGG,0.575 ± 0.063
9,CVMDKEYGYAIK,0.729 ± 0.0094
10,CVPFFSSSSPLI,0.812 ± 0.037
11,CVPLGCDWRGLI,0.6418 ± 0.0058
12,CVQGDGLSFYVL,0.737 ± 0.07
13,CVSALVADDLVS,0.674 ± 0.029
14,CVWSGHIWDLLF,0.764 ± 0.016
15,CYGVGTVGLRRG,0.712 ± 0.048
16,CYGYTESKNRLD,0.6524 ± 0.0046
17,CYKKRKKTNNYE,0.653 ± 0.02
18,CYLGSGFLFFLL,0.5209 ± 0.00091
19,CYRLFPLSSFIP,0.689 ± 0.085
20,DAKPNMATGLSI,0.703 ± 0.027
21,DAWPPVRTVVIN,0.656 ± 0.071
22,DCAVNYVGRRRR,0.702 ± 0.057
23,DDGQWVGFCGWT,0.749 ± 0.039
24,DDQLACSHDIDS,0.643 ± 0.019
25,DDQYVGRYYNKT,0.676 ± 0.019
